doi:10.1101/2024.05.13.593894 (bioRxiv, 2024)
Like-named read-outs stand apart in the source and are kept apart here.

B1: FXR120-RXRα98 heterodimer (FXR_(120-486) with RXRα_(98-462)) (complex, human)
chain 1: KKPRMGASAGRIKGDELCVVCGDRASGYHYNALTCEGCKGFFRRSITKNAVYKCKNGGNCVMDMYMRRKCQECRLRKCKEMGMLAECMYTGLLTEIQCKSKRLRKNVKQHADQTVNEDSEGRDLRQVTSTTKSCREKTELTPDQQTLLHFIMDSYNKQRMPQEITNKILKEEFSAEENFLILTEMATNHVQVLVEFTKKLPGFQTLDHEDQIALLKGSAVEAMFLRSAEIFNKKLPSGHSDLLEERIRNSGISDEYITPMFSFYKSIGELKMTQEEYALLTAIVILSPDRQYIKDREAVEKLQEPLLDVLQKLCKIHQPENPQHFACLLGRLTELRTFNHHHAEMLMSWRVNDHKFTPLLCEIWDVQ
chain 2: MNPVSSSEDIKPPLGLNGVLKVPAHPSGNMASFTKHICAICGDRSSGKHYGVYSCEGCKGFFKRTVRKDLTYTCRDNKDCLIDKRQRNRCQYCRYQKCLAMGMKREAVQEERQRGKDRNENEVESTSSANEDMPVERILEAELAVEPKTETYVEANMGLNPSSPNDPVTNICQAADKQLFTLVEWAKRIPHFSELPLDDQVILLRAGWNELLIASFSHRSIAVKDGILLATGLHVHRNSAHSAGVGAIFDRVLTELVSKMRDMQMDKTELGCLRAIVLFNPDSKGLSNPAEVEALREKVYASLEAYCKHKYPEQPGRFAKLLLRLPALRSIGLKCLEHLFFFKLIGDTPIDTFLMEMLEAPHQMT
B2: SRC1_(630-987) (domain or fragment, human, UniProt Q15788 630-987, looked up)
chain: SHKLVQLLTTTAEQQLRHADIDTSCKDVLSCTGTSNSASANSSGGSCPSSHSSLTERHKILHRLLQEGSPSDITTLSVEPDKKDSASTSVSVTGQVQGNSSIKLELDASKKKESKDHQLLRYLLDKDEKDLRSTPNLSLDDVKVKVEKKEQMDPCNTNPTPMTKPTPEEIKLEAQSQFTADLDQFDQLLPTLEKAAQLPGLCETDRMDGAVTSVTIKSEILPASLQSATARPTSRLNRLPELELEAIDNQFGQPGTGDQIPWTNNTVTAINQSKSEDQCISSQLDELLCPPTTVEGRNDEKALLEQLVSFLSGKDETELAELDRALGIDKLVQGGGLDVLSERFPPQQATPPLIMEER
modifications: biotin (biotin-labelled in the BLI assays; site not stated)

Experiments:
SRC1_(630-987) = biological target: B2; assay: SEC-MALS
[1] = biological target: SRC1_(630-987) M3 mutant (NR-box3 mutated) (human) (UniProt Q15788); assay: BLI
[2] = biological target: B1; assay: BLI
[3] = biological target: B1; assay: BLI; remark: listed apart in the source
[4] = biological target: B1; assay: BLI; remark: listed apart in the source

Binder | stoichiometry N (SRC1_(630-987)) | fold reduction in affinity against wild type SRC1 (630-987) [1] [fold] | Kd [2] [nM] | Kd [3] [nM] | Kd [4] [nM]
B1 | 1 | 2 | – | – | –
B2 | – | – | 43.1 | 23.7 | 49
